We go through 14 molecules from US20150274828A1 (SHANGHAI SERUM BIOTECHNOLOGY, published 2015).

The target of assay [1] is T1, EGFR on A431 cell surface (human, UniProt P00533 25-1210).
T1 construct: whole, on cells; also called natural EGFR on surface of A431 cell
As to the kind of experiment: flow cytometry on A431 cells, antibody 0.03 µg/ml, FITC anti-human IgG. Background: In flow cytometry, cells or beads pass a laser one at a time.

Assay [2] has as its target T2, Recombinant human epidermal growth factor (EGF) (human, UniProt P01133 971-1023).
T2 construct: Coated on the ELISA plate; also called EGR
As to the kind of experiment: ELISA, EGF coated at 1 µg/well, antibody without EGFR-Fc, HRP goat anti-human IgG.

Assay [3] has as its target T3, EGFR-Fc fusion protein (recombinant EGFR extracellular region-Fc) (human, UniProt P00533 25-645).
T3 construct: extracellular domain; not shown: Fc part supplied by vector pABG1
Briefly: BLI Fortebio, method of Example 5 (biotinylated EGFR-Fc on streptavidin sensor). A general note: Biolayer interferometry detects binding as a change in optical thickness at a sensor tip.

The target of assay [4] is T3, EGFR-Fc fusion protein (recombinant …). Briefly: BLI ForteBio QKe, biotinylated EGFR-Fc on streptavidin sensor, antibody 20 nM; fold reduction of affinity, parent Ame55 = 1.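 Also: parent antibody affinity set as 1, with values giving the fold drop in affinity of each mutant antibody relative to that parent.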
Assay [5] shares this target. Briefly: BLI ForteBio QKe, biotinylated EGFR-Fc on streptavidin sensor.
For assay [6] the target is unchanged. Briefly: phage ELISA, EGFR-Fc coated, anti-M13-HRP.

T2 sequence (P01133 971-1023 limits assumed): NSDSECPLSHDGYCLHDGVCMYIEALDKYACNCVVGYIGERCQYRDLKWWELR

B1: Ame55 intact antibody (IgG1) (antibody, V domains shown)
VH: EVQLVQSGAEVKKPGESLKISCKGSGYSFTSYWIGWVRQMPGKGLEWMGIIYPGDSDTRYSPSFQGQVTISADKSISTAYLQWSSLKASDTAMYYCARGIIYPSNVAVWGQGTLVTVSS
VL: SYELTQPPSVSVAPGQTARITCSGDALGDKYASWYQQKPGQAPVLVIYEDSKRPSGIPERFSGSNSGNTATLTISGTQAEDEADYYCSVWDGDWGMPVFGGGTKLTVLG
notes: Variable regions cloned into vectors pABL and pABG1 and expressed in HEK293T as intact IgG1 with lambda light chain; also called Amet55; parent antibody Ame55
Consider B1, for which the binding result in assay [1] was “binds”; in assay [2], “no binding”.

B2: Ame-9B (antibody, V domains shown)
VH: EVQLVESGGGLVQPGGSLRLSCAASGFTFSSYAMSWVRQAPGKGLEWVSAITGTGGETYYADSVKGRFTISRDNSKNTLYLQMNSLRAEDTAVYYCARGWSWTGVDPWGQGTLVTVSS
VL: SYELTQPPSVSVAPGQTARITCSGDALGDKYASWYQQKPGQAPVLVIYEDSKRPSGIPERFSGSNSGNTATLTISGTQAEDEADYYCSVWDGDWGMPVFGGGTKLTVLG
notes: Expressed in HEK293, purified on Protein A; also called mutant Ame-9B
With B2, the “fold decrease of affinity (against Ame55)” value in assay [3] was roughly 6 times.

B3: Ame55 mutant, light chain 95A (antibody, V domains shown)
VH: EVQLVQSGAEVKKPGESLKISCKGSGYSFTSYWIGWVRQMPGKGLEWMGIIYPGDSDTRYSPSFQGQVTISADKSISTAYLQWSSLKASDTAMYYCARGIIYPSNVAVWGQGTLVTVSS
VL: SYELTQPPSVSVAPGQTARITCSGDALGDKYASWYQQKPGQAPVLVIYEDSKRPSGIPERFSGSNSGNTATLTISGTQAEDEADYYCSVWDGDWAMPVFGGGTKLTVLG
notes: Mutant of Ame55
Take B3: the Affinity change in assay [4] was greater than 10 fold.

B4: Ame55 mutant, light chain 95S (antibody, V domains shown)
VH: EVQLVQSGAEVKKPGESLKISCKGSGYSFTSYWIGWVRQMPGKGLEWMGIIYPGDSDTRYSPSFQGQVTISADKSISTAYLQWSSLKASDTAMYYCARGIIYPSNVAVWGQGTLVTVSS
VL: SYELTQPPSVSVAPGQTARITCSGDALGDKYASWYQQKPGQAPVLVIYEDSKRPSGIPERFSGSNSGNTATLTISGTQAEDEADYYCSVWDGDWSMPVFGGGTKLTVLG
notes: Mutant of Ame55
Turning to B4, in assay [4], the Affinity change is greater than 10 fold.

B5: AmeA2 (Ame55 mutant, light chain 89A(A2)) (antibody, V domains shown)
VH: EVQLVQSGAEVKKPGESLKISCKGSGYSFTSYWIGWVRQMPGKGLEWMGIIYPGDSDTRYSPSFQGQVTISADKSISTAYLQWSSLKASDTAMYYCARGIIYPSNVAVWGQGTLVTVSS
VL: SYELTQPPSVSVAPGQTARITCSGDALGDKYASWYQQKPGQAPVLVIYEDSKRPSGIPERFSGSNSGNTATLTISGTQAEDEADYYCSAWDGDWGMPVFGGGTKLTVLG
notes: Mutant of Ame55
With B5, the Affinity change in assay [4] was 0.25 fold.

B6: Ame55 mutant, light chain 97A (antibody, V domains shown)
VH: EVQLVQSGAEVKKPGESLKISCKGSGYSFTSYWIGWVRQMPGKGLEWMGIIYPGDSDTRYSPSFQGQVTISADKSISTAYLQWSSLKASDTAMYYCARGIIYPSNVAVWGQGTLVTVSS
VL: SYELTQPPSVSVAPGQTARITCSGDALGDKYASWYQQKPGQAPVLVIYEDSKRPSGIPERFSGSNSGNTATLTISGTQAEDEADYYCSVWDGDWGMAVFGGGTKLTVLG
notes: Mutant of Ame55
As for B6, the Affinity change in assay [4] is greater than 10 fold.

B7: AmeA2C3 (the mutated light chain has Lys at site 26 and Ala at site 89) (antibody, V domains shown)
VH: EVQLVQSGAEVKKPGESLKISCKGSGYSFTSYWIGWVRQMPGKGLEWMGIIYPGDSDTRYSPSFQGQVTISADKSISTAYLQWSSLKASDTAMYYCARGIIYPSNVAVWGQGTLVTVSS
VL: SYELTQPPSVSVAPGQTARITCSGDKLGDKYASWYQQKPGQAPVLVIYEDSKRPSGIPERFSGSNSGNTATLTISGTQAEDEADYYCSAWDGDWGMPVFGGGTKLTVLG
notes: Mutant of Ame55; also called 26K + 89A
Regarding B7, the Affinity change in assay [4] is less than 0.1 fold.

B8: Ame55 mutant, light chain G28P (antibody, V domains shown)
VH: EVQLVQSGAEVKKPGESLKISCKGSGYSFTSYWIGWVRQMPGKGLEWMGIIYPGDSDTRYSPSFQGQVTISADKSISTAYLQWSSLKASDTAMYYCARGIIYPSNVAVWGQGTLVTVSS
VL: SYELTQPPSVSVAPGQTARITCSGDALPDKYASWYQQKPGQAPVLVIYEDSKRPSGIPERFSGSNSGNTATLTISGTQAEDEADYYCSVWDGDWGMPVFGGGTKLTVLG
notes: Mutant of Ame55
As for B8, the Affinity change in assay [4] is greater than 100 fold.

B9: AmeA2C1 (the mutated light chain has Gly at site 26 and Ala at site 89) (antibody, V domains shown)
VH: EVQLVQSGAEVKKPGESLKISCKGSGYSFTSYWIGWVRQMPGKGLEWMGIIYPGDSDTRYSPSFQGQVTISADKSISTAYLQWSSLKASDTAMYYCARGIIYPSNVAVWGQGTLVTVSS
VL: SYELTQPPSVSVAPGQTARITCSGDGLGDKYASWYQQKPGQAPVLVIYEDSKRPSGIPERFSGSNSGNTATLTISGTQAEDEADYYCSAWDGDWGMPVFGGGTKLTVLG
notes: Mutant of Ame55; also called 26G + 89A
Regarding B9, the Affinity change in assay [4] is less than 0.2 fold.

B10: Ame55 mutant, light chain 89S(A1) (antibody, V domains shown)
VH: EVQLVQSGAEVKKPGESLKISCKGSGYSFTSYWIGWVRQMPGKGLEWMGIIYPGDSDTRYSPSFQGQVTISADKSISTAYLQWSSLKASDTAMYYCARGIIYPSNVAVWGQGTLVTVSS
VL: SYELTQPPSVSVAPGQTARITCSGDALGDKYASWYQQKPGQAPVLVIYEDSKRPSGIPERFSGSNSGNTATLTISGTQAEDEADYYCSSWDGDWGMPVFGGGTKLTVLG
notes: Mutant of Ame55
For the molecule B10, in assay [5], the “fold increase of affinity against parent antibody Ame55” value was determined as 4 times. Moreover, the Affinity change in assay [4] was found to be 0.5 fold.

B11: Ame55 mutant, light chain 96A (antibody, V domains shown)
VH: EVQLVQSGAEVKKPGESLKISCKGSGYSFTSYWIGWVRQMPGKGLEWMGIIYPGDSDTRYSPSFQGQVTISADKSISTAYLQWSSLKASDTAMYYCARGIIYPSNVAVWGQGTLVTVSS
VL: SYELTQPPSVSVAPGQTARITCSGDALGDKYASWYQQKPGQAPVLVIYEDSKRPSGIPERFSGSNSGNTATLTISGTQAEDEADYYCSVWDGDWGAPVFGGGTKLTVLG
notes: Mutant of Ame55
With B11, the Affinity change in assay [4] is greater than 10 fold.

B12: AmeA1C3 (the mutated light chain has Lys at site 26 and Ser at site 89) (antibody, V domains shown)
VH: EVQLVQSGAEVKKPGESLKISCKGSGYSFTSYWIGWVRQMPGKGLEWMGIIYPGDSDTRYSPSFQGQVTISADKSISTAYLQWSSLKASDTAMYYCARGIIYPSNVAVWGQGTLVTVSS
VL: SYELTQPPSVSVAPGQTARITCSGDKLGDKYASWYQQKPGQAPVLVIYEDSKRPSGIPERFSGSNSGNTATLTISGTQAEDEADYYCSSWDGDWGMPVFGGGTKLTVLG
notes: Mutant of Ame55; also called 26K + 89S
B12: in assay [4], the Affinity change is less than 0.2 fold.

B13: AmeA1C1 (the mutated light chain has Gly at site 26 and Ser at site 89) (antibody, V domains shown)
VH: EVQLVQSGAEVKKPGESLKISCKGSGYSFTSYWIGWVRQMPGKGLEWMGIIYPGDSDTRYSPSFQGQVTISADKSISTAYLQWSSLKASDTAMYYCARGIIYPSNVAVWGQGTLVTVSS
VL: SYELTQPPSVSVAPGQTARITCSGDGLGDKYASWYQQKPGQAPVLVIYEDSKRPSGIPERFSGSNSGNTATLTISGTQAEDEADYYCSSWDGDWGMPVFGGGTKLTVLG
notes: Mutant of Ame55; also called 26G + 89S
As for B13, the Affinity change in assay [4] is less than 0.3 fold.

B14: Ame55 phage single chain antibody (scFv)
scFv: SYELTQPPSVSVAPGQTARITCSGDALGDKYASWYQQKPGQAPVLVIYEDSKRPSGIPERFSGSNSGNTATLTISGTQAEDEADYYCSVWDGDWGMPVFGGGTKLTVLGSGGSTITSYNVYYTKLSSSGSEVQLVQSGAEVKKPGESLKISCKGSGYSFTSYWIGWVRQMPGKGLEWMGIIYPGDSDTRYSPSFQGQVTISADKSISTAYLQWSSLKASDTAMYYCARGIIYPSNVAVWGQGTLVTVSS
notes: the phage coat fusion is not described; also called Ame55 phage antibody; Ame55 single chain antibody
Take B14: the binding result in assay [6] was “binds”.
